Here are results for seven molecules from patent US20230256017A1 (published 2023).

To fix the notation:
B1: anti-human BCMA single chain antibody variable fragment (scFv) (PI61) (scFv)
scFv: QVQLQESGGGVVQPGRSLRLSCAASGFTFSSYGMHWVRQAPGKGLEWVAVISYDGSNKYYADSVKGRFTISRDNSKNTLYLQMNSLRAEDTAVYYCGGSGYALHDDYYGLDVWGQGTLVTVSSGGGGSGGGGSGGGGSQSALTQPASVSGSPGQSITISCTGTSSDVGGYNYVSWYQQHPGKAPKLMIYDVSNRPSGVSNRFSGSKSGNTASLTISGLQAEDEADYYCSSYTSSSTLYVFGSGTKVTVL
notes: also called PI61 scFv
B2: Construct 1 (bispecific antibody, human IgG1, kappa)
light: DVVMTQSPPSLLVTLGQPASISCRSSQSLLHSSGNTYLNWLLQRPGQSPQPLIYLVSKLESGVPDRFSGSGSGTDFTLKISGVEAEDVGVYYCMQFTHYPYTFGQGTKLEIKRTVAAPSVFIFPPSDEQLKSGTASVVCLLNNFYPREAKVQWKVDNALQSGNSQESVTEQDSKDSTYSLSSTLTLSKADYEKHKVYACEVTHQGLSSPVTKSFNRGEC
heavy: not shown
notes: Anti-CD3 scFv fused to an anti-CD2 Fab, further fused to a wild type Fc; also called F1
B3: Construct 5 (bispecific antibody)
light: B2 light
heavy: not shown
notes: Anti-CD2 Fab fused to an anti-CD3 scFv, further fused to an Fc; Stated ligand valency of 2; also called F5
B4: Construct 12 (bispecific antibody, human IgG1, kappa)
light: B2 light
heavy 1: QVQLVQSGAEVQRPGASVKVSCKASGYIFTEYYMYWVRQAPGQGLELVGRIDPEDGSIDYVEKFKKKVTLTADTSSSTAYMELSSLTSDDTAVYYCARGKFNYRFAYWGQGTLVTVSSASTKGPSVFPLAPSSKSTSGGTAALGCLVKDYFPEPVTVSWNSGALTSGVHTFPAVLQSSGLYSLSSVVTVPSSSLGTQTYICNVNHKPSNTKVDKRVEPKSCDKTHTCPPCPAPELLGGPSVFLFPPKPKDTLMISRTPEVTCVVVDVSHEDPEVKFNWYVDGVEVHNAKTKPREEQYNSTYRVVSVLTVLHQDWLNGKEYKCKVSNKALPAPIEKTISKAKGQPREPQVCTLPPSREEMTKNQVSLSCAVKGFYPSDIAVEWESNGQPENNYKTTPPVLDSDGSFFLVSKLTVDKSRWQQGNVFSCSVMHEALHNRFTQKSLSLSPGK
heavy 2: not shown
notes: Anti-CD2 Fab-Fc paired with anti-CD3 scFv-Fc-(G4S)3-Matrilin1; also called F12
B5: Construct 3 (bispecific antibody, human IgG1, kappa)
light: B2 light
heavy: not shown
notes: Anti-CD2 Fab fused to a wild type Fc, further fused to an anti-CD3 scFv; Stated ligand valency of 2; also called F3
B6: Construct 7 (bispecific antibody)
light: B2 light
heavy: not shown
notes: Anti-CD3 scFv fused to an Fc, further fused to an anti-CD2 Fab; Stated ligand valency of 2; also called F7
B7: Construct 15 (bispecific antibody, human IgG1, kappa)
light: B2 light
heavy 1: B4 heavy 1
heavy 2: not shown
notes: Anti-CD2 Fab-Fc paired with anti-CD3 scFv-Fc-(G4S)-COMPcc; also called F15

In the first assay the target is T1, BCMA (TNFRSF17) (human, UniProt Q02223 1-184, limits assumed).
T1 construct: Member of a commercial human plasma membrane protein array
T1 sequence (looked up): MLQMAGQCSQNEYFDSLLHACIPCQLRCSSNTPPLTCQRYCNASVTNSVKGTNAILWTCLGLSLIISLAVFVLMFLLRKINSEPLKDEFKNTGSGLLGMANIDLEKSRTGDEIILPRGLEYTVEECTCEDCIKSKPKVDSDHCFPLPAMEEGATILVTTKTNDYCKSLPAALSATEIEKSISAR
Kind of assay: commercial human plasma membrane protein array.
Turning to B1, the binding result is “binds”.

The next assay addresses T2, CD2 (human, UniProt P06729 25-351).
T2 construct: whole, on cells; also called T-cell surface antigen T11/Leu-5/CD2
T2 sequence (looked up): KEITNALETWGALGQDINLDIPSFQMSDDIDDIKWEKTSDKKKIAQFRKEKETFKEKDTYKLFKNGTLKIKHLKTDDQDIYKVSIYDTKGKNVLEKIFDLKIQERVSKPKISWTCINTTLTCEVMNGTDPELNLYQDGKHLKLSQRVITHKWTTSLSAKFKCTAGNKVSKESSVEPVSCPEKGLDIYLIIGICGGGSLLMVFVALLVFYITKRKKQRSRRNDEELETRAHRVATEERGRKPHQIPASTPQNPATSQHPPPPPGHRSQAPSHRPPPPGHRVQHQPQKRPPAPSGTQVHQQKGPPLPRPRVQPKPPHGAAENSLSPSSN
As to the kind of experiment: legend of FIG. 55 (CAR transduction of donor T cells by costimulatory molecule targeted); no direct binding assay.
B2: the binding result was “binds”. On to B3, for which the binding result is “binds”. As to B4, the binding result was “binds”. On the same count and under the same terms, the value for B5 was “binds”; that for B6 was “binds”; that for B7 was “binds”.
